Data: article PMC6761149

Biological target: Q8DLC1
Experiment: SAXS; ESRF BM29, 10 °C, 20 mM Tris/HCl pH 7.5, 500 mM NaCl, 20% (v/v) glycerol; dark holoprotein (NADPH, Pchlide) at 0.65 mg ml^-1; monomer content from I(0)
Settings: other: SAXS

B1: light-dependent protochlorophyllide oxidoreductase of Thermosynechococcus elongatus BP-1 (TeLPOR) (protein)
chain: MSDQPRPTVIITGASSGVGLYATKALANRGWHVIMACRNLEKAEQAAKNLQIPPEAYTILHLDLSSLASVRGFVESFRALNRPLRALVCNAAVYYPLLKEPIYSVDGYEITVATNHLGHFLLINLLLEDLKNSPESDKRLVILGTVTANRKELGGKIPIPAPPDLGNLEGFEKGFKKPIAMINGKPFKSGKAYKDSKLCNMLTARELHRRFHESTGIVFNSLYPGCVADTPLFRHHFPLFQKLFPLFQKKITGGYVSQELAGERVAMVVADPEFRQSGVHWSWGNRQKEGRKAFVQELSAEASDEQKARRLWELSEKLVGLA
  monomer content from I(0), with NADPH and Pchlide: monomer content from I(0): 85.9%
